According to paper PMC8109800:

Experiments:
[1] = system: MiniChl1V2 (Chaetomium thermophilum); assay: fluorescence anisotropy; settings: 50 mM HEPES pH 8.0, 50 mM NaCl, 0.5 mM TCEP, 25 C; 10 nM FAM-DNA; quadratic fit
[2] = system: Chl1 full-length (Chaetomium thermophilum); assay: fluorescence anisotropy; settings: no plateau reached, low affinity; 50 mM HEPES pH 8.0, 50 mM NaCl, 0.5 mM TCEP, 25 C; 10 nM FAM-DNA; quadratic fit

22-mer ssDNA
Kd [1]: 38 nM
Kd [2]: > 1000 nM
